Entries after “also recorded” stand apart in the source; their conditions may differ.
Legend:
[1] = Thermal stability, melting temperature (Tm) by differential scanning fluorimetry; format: physicochemical; settings: compared to ADA1
Description: Proteins differ in their degrees of thermal stability (or thermostability). In particular, proteins with biological activities, such as enzymes, can have different optimal temperatures. Thermostability, the quality of a protein to resist irreversible change in its chemical or physical structure at a relatively high temperature, can be indicative of overall stability of a protein. Increased temperature usually induces protein unfolding, and disruption of secondary, tertiary and quaternary structure of proteins, leading to destabilization of protein. Thermostability of a protein, such as any ADA2 polypeptide provided herein, can be determined by measuring the changes in enzymatic activity and/or other physical properties, before and after incubation in relatively high or low temperatures.
The stability of a protein can be determined by measuring the activity of the protein as a function of time. The melting temperature (Tm) of the protein can be used as a marker of solution stability and in vivo stability for proteins. The unfolding temperature of a particular protein refers to that temperature at which the protein loses its secondary structure and typically, its activity and can be determined using methods known to those of skill in the art and described herein, such as differential scanning calorimetry […]. […] In other examples, the thermal stability can be measured biochemically. […]

[2] = Distribution in normal organs of naive mice vs. CT26 tumors (IVIS); format: in vivo, Balb/c mice; settings: 24 hr; for (Fluorescent intensity/Tissue Weight) - Baseline: 0.5 mg/kg IV
Description: To assess the distribution and elimination of administered PEG-ADA2-K374D in the tumor microenvironment or in normal organs, immunofluorescence was used to assess the presence of PEG-ADA2-K374D administered to mice. PEG-ADA2-K374D was labeled at room temperature for 60 minutes with DyLight755 Sulfydryl-Reactive Dye (DL755), a near-IR fluor, using the DyLight 755 Antibody Labeling Kit (Thermo Scientific, Rockford, Ill.). Alexa Fluor 750 (AF 750) labeled bovine serum albumin (BSA, 1 mg/mL) was purchased from (Life Technology, Carlsbad, Calif.).
To compare the distribution in naïve mice, CT26-tumor bearing mice were generated as described above, and were intravenously administered PEG-ADA2-K374D^DL755 at 0.5 mg/kg (n=3). Separately, naïve Balb/c mice also were intravenously administered PEG-ADA2-K374D^DL755 at 0.5 mg/kg (n=4). The mice were sacrificed and transcardically perfused with heparin normal saline 24 hours post PEG-ADA2-K374D^DL755 injection. Tumors from tumor-bearing mice and organs from naïve mice were collected and imaged with IVIS image system, and DL755 signal intensity was measured with LivingImage software as described above. Signal intensity was normalized by tissue organ weight.

[3] = test system: KLN205 murine lung cancer tumor; experiment: Tumor growth inhibition of combination therapy with anti-PD-1, KLN205 syngeneic tumor model; format: in vivo, DBA/2 mice; settings: study day 14, PEG-K374D 0.3 mg/kg IV biweekly, α-PD-1 2 mg/kg IP biweekly
Description: KLN205 syngeneic tumor models were produced by injecting thirty-two (32) DBA/2 mice with 5×10^5 KLN205 murine lung cancer tumor cells (ATCC CRL-1453), in 0.1 mL injection volume per animal, subcutaneously. Tumor bearing mice were staged into treatment groups when the average tumor size reached approximately 100 mm^3.
For treatment, animals were randomized into 4 groups (n=8/group): 1) saline vehicle control, 2) PEG-K374D, 3) α-PD-1 antibody (Clone RMP1-14, Cat. No. BE0146; BioXCell, West Lebanon, N.H.), or 4) PEG-K374D+α-PD-1. PEG-K374D was dosed intravenously biweekly at 0.3 mg/kg, and α-PD-1 was dosed intraperitoneally biweekly at 2 mg/kg). The sequence of dosing in the combination group was PEG-K374D immediately followed by α-PD-1.
where “Tn” is the average tumor volume for the treatment group at day “n” after the final dose of PEG-K374D and α-PD-1 or control; “T0” is the average tumor volume in that treatment group at day 0, before treatment; “Cn” is the average tumor volume for the corresponding control group at day “n”; and “C0” is the average tumor volume in the control group at day 0, before treatment.

B1: ADA2: wild-type human adenosine deaminase 2, mature form SEQ ID NO:5, homodimer (protein, listed as Homo sapiens)
chain: IDETRAHLLLKEKMMRLGGRLVLNTKEELANERLMTLKIAEMKEAMRTLIFPPSMHFFQAKHLIERSQVFNILRMMPKGAALHLHDIGIVTMDWLVRNVTYRPHCHICFTPRGIMQFRFAHPTPRPSEKCSKWILLEDYRKRVQNVTEFDDSLLRNFTLVTQHPEVIYTNQNVVWSKFETIFFTISGLIHYAPVFRDYVFRSMQEFYEDNVLYMEIRARLLPVYELSGEHHDEEWSVKTYQEVAQKFVETHPEFIGIKIIYSDHRSKDVAVIAESIRMAMGLRIKFPTVVAGFDLVGHEDTGHSLHDYKEALMIPAKDGVKLPYFFHAGETDWQGTSIDRNILDALMLNTTRIGHGFALSKHPAVRTYSWKKDIPIEVCPISNQVLKLVSDLRNHPVATLMATGHPMVISSDDPAMFGAKGLSYDFYEVFMGIGGMKADLRTLKQLAMNSIKYSTLLESEKNTFMEIWKKRWDKFIADVATK
modifications: ADA2 mature protein
[1]
  thermal stability: higher thermal stability

B2: PEG-K374D: rHuADA2-K374D (SEQ ID NO:20) PEGylated on surface exposed lysines with linear PEG-20K (conjugate)
chain: IDETRAHLLLKEKMMRLGGRLVLNTKEELANERLMTLKIAEMKEAMRTLIFPPSMHFFQAKHLIERSQVFNILRMMPKGAALHLHDIGIVTMDWLVRNVTYRPHCHICFTPRGIMQFRFAHPTPRPSEKCSKWILLEDYRKRVQNVTEFDDSLLRNFTLVTQHPEVIYTNQNVVWSKFETIFFTISGLIHYAPVFRDYVFRSMQEFYEDNVLYMEIRARLLPVYELSGEHHDEEWSVKTYQEVAQKFVETHPEFIGIKIIYSDHRSKDVAVIAESIRMAMGLRIKFPTVVAGFDLVGHEDTGHSLHDYKEALMIPAKDGVKLPYFFHAGETDWQGTSIDRNILDALMLNTTRIGHGFALSKHPAVRTYSWDKDIPIEVCPISNQVLKLVSDLRNHPVATLMATGHPMVISSDDPAMFGAKGLSYDFYEVFMGIGGMKADLRTLKQLAMNSIKYSTLLESEKNTFMEIWKKRWDKFIADVATK
modifications: linear PEG-20K on surface lysines; human ADA2 K371D, mature numbering
[2]; Bone, naive mice
  (Fluorescent intensity/Tissue Weight) - Baseline: 1.82E+06
[2]; Brain, naive mice
  (Fluorescent intensity/Tissue Weight) - Baseline: 2.11E+05
[2]; Colon, naive mice
  (Fluorescent intensity/Tissue Weight) - Baseline: 9.13E+05
[2]; Heart, naive mice
  (Fluorescent intensity/Tissue Weight) - Baseline: 5.55E+05
[2]; Kidney, naive mice
  (Fluorescent intensity/Tissue Weight) - Baseline: 8.61E+05
[2]; Liver, naive mice
  (Fluorescent intensity/Tissue Weight) - Baseline: 4.02E+06
[2]; Lung, naive mice
  (Fluorescent intensity/Tissue Weight) - Baseline: 1.22E+06
[2]; Spleen, naive mice
  (Fluorescent intensity/Tissue Weight) - Baseline: 2.98E+06
[2]; Tumor, CT26 tumor-bearing mice
  (Fluorescent intensity/Tissue Weight) - Baseline: 6.22E+06
[2]; ratio tumor/Bone
  Signal Intensity (Tumor vs Organ): 3.4
[2]; ratio tumor/Brain
  Signal Intensity (Tumor vs Organ): 29.5
[2]; ratio tumor/Colon
  Signal Intensity (Tumor vs Organ): 6.8
[2]; ratio tumor/Heart
  Signal Intensity (Tumor vs Organ): 11.2
[2]; ratio tumor/Kidney
  Signal Intensity (Tumor vs Organ): 7.2
[2]; ratio tumor/Liver
  Signal Intensity (Tumor vs Organ): 1.5
[2]; ratio tumor/Lung
  Signal Intensity (Tumor vs Organ): 5.1
[2]; ratio tumor/Spleen
  Signal Intensity (Tumor vs Organ): 2.1
[3]
  Average Tumor Volume: 264.56 mm^3
  Tumor Growth Inhibition: inhibited tumor growth; also recorded: greater tumor growth inhibition than either α-PD-1 treatment alone or the PEG-K374D+α-PD-1 combination therapy
[3]; vs vehicle
  Tumor Growth Inhibition: 78%

From patent US9969998B2, “Compositions of adenosine deaminase-2 (ADA2), variants thereof and methods of using same” (Halozyme, Inc., priority 2014, dated 2018)
